{"source": "paper PMC7855779", "key": {"[1]": {"target": "MD2 (Homo sapiens) (UniProt Q9Y6Y9)", "sequence (Q9Y6Y9 19-160)": "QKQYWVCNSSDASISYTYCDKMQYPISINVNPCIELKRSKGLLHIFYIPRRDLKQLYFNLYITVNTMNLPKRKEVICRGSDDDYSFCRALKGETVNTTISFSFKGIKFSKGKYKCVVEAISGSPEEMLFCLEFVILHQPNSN", "conditions": "cited from earlier work"}, "[2]": {"target": "MD2 (Homo sapiens) (UniProt Q9Y6Y9)", "conditions": "cited from earlier work", "remark": "listed apart in the source"}, "[3]": {"target": "MD2-TLR4 complex (rat (endogenous in NRK-52E)) (UniProt Q9QX05)", "sequence (Q9QX05 whole entry, looked up, one chain of several)": "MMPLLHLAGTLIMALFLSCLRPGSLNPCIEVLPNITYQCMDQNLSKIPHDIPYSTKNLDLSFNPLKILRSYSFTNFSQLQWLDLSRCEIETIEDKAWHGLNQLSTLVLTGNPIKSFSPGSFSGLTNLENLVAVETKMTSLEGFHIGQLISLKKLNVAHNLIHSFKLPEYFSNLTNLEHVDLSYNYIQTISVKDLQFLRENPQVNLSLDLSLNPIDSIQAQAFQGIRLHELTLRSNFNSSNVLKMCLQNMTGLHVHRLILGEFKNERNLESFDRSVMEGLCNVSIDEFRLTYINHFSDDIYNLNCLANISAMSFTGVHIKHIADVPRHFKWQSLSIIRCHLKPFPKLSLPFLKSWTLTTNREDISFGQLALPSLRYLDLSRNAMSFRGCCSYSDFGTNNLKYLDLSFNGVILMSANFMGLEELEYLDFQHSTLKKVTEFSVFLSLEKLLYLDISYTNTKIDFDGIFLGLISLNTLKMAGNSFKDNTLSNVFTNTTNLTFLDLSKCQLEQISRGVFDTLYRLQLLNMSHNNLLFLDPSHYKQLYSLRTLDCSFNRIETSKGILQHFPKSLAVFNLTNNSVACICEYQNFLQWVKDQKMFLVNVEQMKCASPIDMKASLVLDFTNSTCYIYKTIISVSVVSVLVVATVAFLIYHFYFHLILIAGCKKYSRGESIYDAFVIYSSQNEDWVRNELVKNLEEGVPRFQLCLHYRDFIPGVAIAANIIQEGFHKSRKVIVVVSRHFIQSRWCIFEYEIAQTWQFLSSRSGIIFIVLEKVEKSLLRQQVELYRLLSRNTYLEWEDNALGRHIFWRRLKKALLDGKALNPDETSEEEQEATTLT"}, "[4]": {"target": "MD2-TLR4 complex (rat (endogenous in NRK-52E)) (UniProt Q9QX05)", "remark": "listed apart in the source"}}, "note": "Like-named read-outs stand apart in the source and are kept apart here.", "data": [{"substance": "HMGB1 (from UniProt P09429)", "values": [{"measurement": "Kd", "setting": "[1]", "result": 0.6, "unit": "µM"}]}, {"substance": "Angiotensin II (from UniProt P01019)", "values": [{"measurement": "Kd", "setting": "[2]", "result": 200, "unit": "µM"}]}, {"substance": "Angiotensin II (peptide)", "values": [{"measurement": "IL-6 content of the media of NRK-52E cells (ELISA), Ang II 1 μM against control", "setting": "[3]", "result": 15, "unit": "pg/mL"}, {"measurement": "IL-6 content of the media of NRK-52E cells (ELISA), Ang II 1 μM against control", "setting": "[4]", "result": 61, "unit": "pg/mL"}]}]}
